Assay results: publication PMC2148453
pKd: −log10 of the molar value.

Legend:
[1] = biological target: microtubules (taxol-stabilised, polymerised from PC-tubulin; tubulin alpha-beta heterodimer) (UniProt P02550); experiment: cryo-EM structure
[2] = biological target: microtubules (taxol-stabilised, polymerised from PC-tubulin; tubulin alpha-beta heterodimer) (UniProt P02550); experiment: co-sedimentation

Chain of UniProt P02550 (P02550 whole entry, looked up, one chain of several): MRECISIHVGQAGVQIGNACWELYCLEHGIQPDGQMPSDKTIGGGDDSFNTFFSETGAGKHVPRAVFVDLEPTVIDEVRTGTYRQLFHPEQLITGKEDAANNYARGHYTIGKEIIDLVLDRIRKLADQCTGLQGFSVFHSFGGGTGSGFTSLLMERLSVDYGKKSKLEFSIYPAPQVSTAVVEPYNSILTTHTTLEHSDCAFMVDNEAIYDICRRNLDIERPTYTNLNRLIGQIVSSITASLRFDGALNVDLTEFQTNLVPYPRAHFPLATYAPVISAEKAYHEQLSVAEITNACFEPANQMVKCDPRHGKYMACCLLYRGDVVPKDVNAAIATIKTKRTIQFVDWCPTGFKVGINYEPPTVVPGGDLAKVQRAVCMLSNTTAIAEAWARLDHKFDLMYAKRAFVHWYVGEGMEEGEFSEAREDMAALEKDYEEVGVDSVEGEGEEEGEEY

stoichiometry N (kinesin head per tubulin heterodimer) [1] | pKd [2] | stoichiometry N (kinesin heads per tubulin dimer) [2] | stoichiometry N (head per tubulin dimer) [1] | stoichiometry N (head per tubulin heterodimer) [1] | Substance
1 | – | – | – | – | rat kinesin construct rK354 (from UniProt P56536 1-354) (domain or fragment)
– | 6.40 | 1.1 | 1 | 1 | rat kinesin construct rK379 (from UniProt P56536 1-379) (domain or fragment)
